{"source": "paper PMC12650144", "about": "“Interactive Role of the DHPR β1a SH3 Domain in Skeletal Muscle Excitation–Contraction Coupling” (Biomolecules, 2025)", "binders": {"B1": {"name": "DHPR α1s II-III loop (domain or fragment, UniProt P07293 666-791, looked up)", "chain": "EAESLTSAQKAKAEERKRRKMSRGLPDKTEEEKSVMAKKLEQKPKGEGIPTTAKLKVDEFESNVNEVKDPYPSADFPGDDEEDEPEIPVSPRPRPLAELQLKEKAVPIPEASSFFIFSPTNKVRVL", "notes": "DHPR α1s subunit (CaV1.1), cytoplasmic II-III loop, residues E666-L791 of NCBI X05921 (methods); the results say residues 666-790 of NP_001095190; Methods: E666-L791; results: 666-790; also called α1s DHPR II-III Loop; DHPR II-III loop; source: E. coli BL21, purified (Ni-agarose, ubiquitin removed, preparative electrophoresis); not shown: polyhistidine-tagged ubiquitin, N-terminal, cleaved"}, "B2": {"name": "α1s II–III loop C region peptide (residues 720–765) (peptide, UniProt P07293 720-765, looked up)", "peptide": "LKVDEFESNVNEVKDPYPSADFPGDDEEDEPEIPVSPRPRPLAELQ", "notes": "DHPR α1s subunit, II-III loop C region, residues 720-765 of NP_001095190.1 (skeletal); also called α1s C; skeletal II-III loop C region; source: synthetic peptide"}, "B3": {"name": "α1c II–III loop C region peptide (residues 851–895) (peptide, UniProt P15381-1 851-895, looked up)", "peptide": "INMDDLQPNESEDKSPYPNPETTGEEDEEEPEMPVGPRPRPLSEL", "notes": "DHPR α1c subunit (cardiac, CaV1.2), II-III loop C region, residues 851-895 of NP_001129994.1 (cardiac); also called α1c C; cardiac II-III loop C region; source: synthetic peptide"}}, "key": {"[1]": {"biological_target": "T1, DHPR β1a SH3 domain (β1a residues V101-P272) (mouse, UniProt Q8R3Z5-4 101-272)", "T1 construct": "mouse DHPR β1a subunit, NCBI NM_031173, residues V101-P272 (split SH3 domain with the hook region); also called β1a–SH3 Domain (Residues 101–272); β1a SH3 protein; not shown: polyhistidine-tagged ubiquitin, N-terminal, cleaved", "T1 sequence (Q8R3Z5 other isoform, or with tags, fused parts or gaps)": "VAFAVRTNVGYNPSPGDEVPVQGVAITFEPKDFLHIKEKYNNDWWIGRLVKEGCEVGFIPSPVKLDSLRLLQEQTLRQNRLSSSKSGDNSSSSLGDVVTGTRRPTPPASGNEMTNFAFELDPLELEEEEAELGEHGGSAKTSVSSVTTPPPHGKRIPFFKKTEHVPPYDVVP", "assay": "other fluorescence titration; tryptophan fluorescence quenching: intrinsic fluorescence of the β subunit or β1a-SH3 domain in the cuvette (sub-micromolar; 50 nM β1a-FL for the AID titration) monitored while titrating the II-III loop or peptides; excitation 280 nm, emission 340 nm; corrected for dilution and intrinsic fluorescence of the titrant; nonlinear regression", "details": "both partners purified"}, "[2]": {"biological_target": "T2, DHPR β1a subunit, full length (mouse, UniProt Q8R3Z5-4 1-524)", "T2 construct": "mouse voltage-gated calcium channel (DHPR) β1a subunit, NCBI NM_031173, full length; also called β1a-FL; full-length β1a; source: E. coli BL21, purified (Ni-agarose, ubiquitin removed, preparative electrophoresis); not shown: polyhistidine-tagged ubiquitin, N-terminal, cleaved", "T2 sequence (Q8R3Z5 other isoform, or with tags, fused parts or gaps)": "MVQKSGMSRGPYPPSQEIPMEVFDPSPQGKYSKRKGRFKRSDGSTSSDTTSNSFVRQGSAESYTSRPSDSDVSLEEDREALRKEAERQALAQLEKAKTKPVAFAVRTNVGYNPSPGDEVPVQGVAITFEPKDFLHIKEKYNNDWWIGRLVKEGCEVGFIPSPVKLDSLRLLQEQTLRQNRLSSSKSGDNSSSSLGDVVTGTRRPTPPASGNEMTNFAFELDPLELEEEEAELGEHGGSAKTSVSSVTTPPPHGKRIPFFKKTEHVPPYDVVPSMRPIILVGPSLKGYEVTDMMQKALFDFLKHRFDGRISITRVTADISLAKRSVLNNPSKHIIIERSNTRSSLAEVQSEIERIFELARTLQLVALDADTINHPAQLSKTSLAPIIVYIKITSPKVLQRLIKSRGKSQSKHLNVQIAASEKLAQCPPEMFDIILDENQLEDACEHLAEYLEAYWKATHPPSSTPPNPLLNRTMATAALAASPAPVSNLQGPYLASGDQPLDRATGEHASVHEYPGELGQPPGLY", "assay": "other fluorescence titration; tryptophan fluorescence quenching: intrinsic fluorescence of the β subunit or β1a-SH3 domain in the cuvette (sub-micromolar; 50 nM β1a-FL for the AID titration) monitored while titrating the II-III loop or peptides; excitation 280 nm, emission 340 nm; corrected for dilution and intrinsic fluorescence of the titrant; nonlinear regression", "details": "both partners purified"}}}
{"binder": "B1", "values": [{"measurement": "Kd", "setting": "[1]", "value": "2.6 ± 0.2", "unit": "µM"}, {"measurement": "Kd", "setting": "[2]", "value": "2.5 ± 0.4", "unit": "µM"}]}
{"binder": "B2", "values": [{"measurement": "Kd", "setting": "[1]", "value": "3.6 ± 0.6", "unit": "µM"}, {"measurement": "Kd", "setting": "[2]", "value": "4.9 ± 0.6", "unit": "µM"}]}
{"binder": "B3", "values": [{"measurement": "Kd", "setting": "[1]", "value": "2.5 ± 0.2", "unit": "µM"}, {"measurement": "Kd", "setting": "[2]", "value": "3.5 ± 0.4", "unit": "µM"}]}
